From patent US20240301068A1 (BEIJING HANMI PHARMACEUTICAL, published 2024)

Tests used:
[1] = molecular target: recombinant human PD-L1 (Sino Biological Inc.) (human, UniProt Q9NZQ7 19-239); experiment: ELISA, plate coated with 1 ug/mL recombinant human PD-L1, anti-human IgG-HRP, OD450
Method: A 96-well high-adsorption ELISA plate was coated with 1 μg/mL of the recombinant human PD-L1, cynomolgus PD-L1, rat PD-L1 and mouse PD-L1 (all purchased from Sino Biological Inc.), at 100 μL per well using carbonate buffer solution, pH=9.6 at 4° C. overnight. The plate was washed 5 times with PBST, and then blocked using PBST with 1% BSA, 300 μL/well, and incubated at 25° C. for 1 hour, and then washed 5 times with PBST. The chimeric anti-human PD-L1 antibody samples serially diluted in PBST with 1% BSA were added, 100 μL/well, incubated at 25° C. for 1 hour, and then washed 5 times with PBST. The horseradish peroxidase-labeled anti-human IgG antibody (Chemicon, catalog number AP309P) diluted 1:10000 in PBST with 1% BSA was then added, 100 μL per well, and incubated at 25° C. for 1 hour. The plate was washed 5 times with PBST. The colorimetric substrate TMB was added, 100 μL/well, and developed at room temperature for 10 minutes. 1M H₂SO₄ was added, 100 μL/well, to stop the development. The absorbance at 450 nm was read on a microplate reader.

[2] = molecular target: T1, recombinant human B7-H2 (Sino Biological Inc.) (human, UniProt O75144 19-258, limits assumed); experiment: ELISA, plate coated with 1 ug/mL recombinant human B7-H2, anti-human IgG-HRP, OD450; antibody concentration not shown
T1 sequence (looked up): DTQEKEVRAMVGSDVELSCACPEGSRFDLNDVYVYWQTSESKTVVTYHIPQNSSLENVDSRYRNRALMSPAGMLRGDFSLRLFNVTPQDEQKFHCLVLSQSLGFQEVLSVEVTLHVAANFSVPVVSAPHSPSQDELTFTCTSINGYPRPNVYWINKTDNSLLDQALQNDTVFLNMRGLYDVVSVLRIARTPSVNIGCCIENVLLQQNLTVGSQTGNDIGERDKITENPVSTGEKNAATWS
Method: (§1) The plate was washed 5 times with PBST, and then blocked using PBST with 1% BSA, 300 μL/well, and incubated at 25° C. for 1 hour, and then washed 5 times with PBST. […] The horseradish peroxidase-labeled anti-human IgG antibody (Chemicon, catalog number AP309P) diluted 1:10000 in PBST with 1% BSA was then added, 100 μL per well, and incubated at 25° C. for 1 hour. The plate was washed 5 times with PBST. The colorimetric substrate TMB was added, 100 μL/well, and developed at room temperature for 10 minutes. 1M H₂SO₄ was added, 100 μL/well, to stop the development. The absorbance at 450 nm was read on a microplate reader.

[3] = molecular target: T2, recombinant human CD86 (Sino Biological Inc.) (human, UniProt P42081 24-247, limits assumed); experiment: ELISA, plate coated with 1 ug/mL recombinant human CD86 (printed B7-2), anti-human IgG-HRP, OD450; antibody concentration not shown
T2 sequence (looked up): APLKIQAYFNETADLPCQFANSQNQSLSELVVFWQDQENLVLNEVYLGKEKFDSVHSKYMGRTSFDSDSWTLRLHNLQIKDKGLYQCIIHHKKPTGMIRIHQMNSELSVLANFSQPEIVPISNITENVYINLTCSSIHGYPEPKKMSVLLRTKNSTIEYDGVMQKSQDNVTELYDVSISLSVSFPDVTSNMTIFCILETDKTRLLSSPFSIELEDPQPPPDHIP
Method: as §1

[4] = molecular target: T3, recombinant human ICOS (Sino Biological Inc.) (human, UniProt Q9Y6W8 21-141); experiment: ELISA, plate coated with 1 ug/mL recombinant human ICOS, anti-human IgG-HRP, OD450; antibody concentration not shown
T3 sequence (looked up): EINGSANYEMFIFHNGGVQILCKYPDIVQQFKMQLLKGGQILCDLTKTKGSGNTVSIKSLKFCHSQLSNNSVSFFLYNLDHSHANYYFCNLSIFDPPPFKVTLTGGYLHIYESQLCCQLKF
Method: as §1

[5] = molecular target: T4, recombinant human PD-L2 (Sino Biological Inc.) (human, UniProt Q9BQ51 20-219); experiment: ELISA, plate coated with 1 ug/mL recombinant human PD-L2 (printed B7-DC), anti-human IgG-HRP, OD450; antibody concentration not shown
T4 sequence (looked up): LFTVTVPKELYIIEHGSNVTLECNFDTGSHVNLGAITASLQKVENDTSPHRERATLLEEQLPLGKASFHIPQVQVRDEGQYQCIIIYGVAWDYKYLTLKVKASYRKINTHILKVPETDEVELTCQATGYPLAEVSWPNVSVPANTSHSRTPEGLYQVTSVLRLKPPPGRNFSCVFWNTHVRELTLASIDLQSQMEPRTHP
Method: as §1

[6] = molecular target: T5, recombinant human PD-L1-Fc protein (human, UniProt Q9NZQ7 19-238, limits assumed); experiment: blocking ELISA, plate coated with 1 ug/mL human PD-L1-Fc; blocked ligand biotin-labelled PD-1-Fc at 20 nM final, streptavidin-HRP, OD450
T5 construct: Prepared by Beijing Hanmi Pharmaceutical; The GenBank number is NP_001254635.1
T5 sequence (Q9NZQ7 19-238 limits assumed): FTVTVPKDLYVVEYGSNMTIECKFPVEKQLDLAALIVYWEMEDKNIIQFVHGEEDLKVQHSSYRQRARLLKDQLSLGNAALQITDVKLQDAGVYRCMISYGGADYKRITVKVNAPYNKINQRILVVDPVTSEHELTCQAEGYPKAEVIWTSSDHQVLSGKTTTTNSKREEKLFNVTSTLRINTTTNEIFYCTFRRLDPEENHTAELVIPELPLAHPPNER
Method: (§2) A 96-well high-adsorption ELISA plate was coated with 1 μg/mL of the recombinant human PD-L1-Fc at 100 μL per well using carbonate buffer solution, pH=9.6 at 4° C. overnight. The plate was washed 5 times with PBST, and then blocked using PBST with 1% BSA, 300 μL/well, and incubated at 25° C. for 1 hour, and then washed 5 times with PBST. […] The Streptavidin-HRP (BD Pharmingen, catalog number 554066) diluted 1:1000 in PBST with 1% BSA was then added, 100 μL per well, and incubated at 25° C. for 1 hour. The plate was washed 5 times with PBST. The colorimetric substrate TMB was added, 100 μL/well, and developed at room temperature for 10 minutes. 1M H₂SO₄ was added, 100 μL/well, to stop the development. The absorbance at 450 nm was read on a microplate reader.

[7] = molecular target: recombinant human CTLA4 (Sino Biological Inc.) (human, UniProt P16410 36-162); experiment: ELISA, plate coated with 1 ug/mL recombinant human CTLA4, anti-human IgG-HRP, OD450; antibody concentration not shown
Sequence of recombinant human CTLA4 (Sino Biological Inc.) (P16410 36-162 limits assumed): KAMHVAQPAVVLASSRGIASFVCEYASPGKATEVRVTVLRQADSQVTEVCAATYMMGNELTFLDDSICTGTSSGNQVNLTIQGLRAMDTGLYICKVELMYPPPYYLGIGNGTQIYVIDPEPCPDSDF
Method: as §1

[8] = molecular target: T5, recombinant human PD-L1-Fc protein; experiment: competition ELISA: PD-L1-Fc coated, competitor biotin-labelled PD-1-Fc
Method: as §2

Sequence of recombinant human PD-L1 (Sino Biological Inc.) (Q9NZQ7 19-239 limits assumed): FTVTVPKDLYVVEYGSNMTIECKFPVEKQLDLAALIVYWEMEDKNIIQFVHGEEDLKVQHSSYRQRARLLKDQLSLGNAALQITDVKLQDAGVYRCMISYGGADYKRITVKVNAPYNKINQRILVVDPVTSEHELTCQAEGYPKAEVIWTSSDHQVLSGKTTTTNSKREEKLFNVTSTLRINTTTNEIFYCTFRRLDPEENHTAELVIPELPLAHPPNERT

- EC50 [1]: 0.056 nM
- binding result [2]: no binding
- binding result [3]: no binding
- binding result [4]: no binding
- binding result [5]: no binding
- IC50 [6]: 1.08 nM
- binding result [7]: no binding
- IC50 [8]: 0.596 nM
B1: chimeric anti-human PD-L1 monoclonal antibody (antibody, human IgG1, kappa, V domains shown)
VH: EVQLQQSGAELVKPGASVKLSCTASGFNIEDTYIHWVMQRPEQGLEWIGRIDPANGNTKYDPKFQGKATITADTSSNTAYLQLSSLTSEDTAVYYCGRGLGAWFAYWGQGTLVTVSA
VL: DIVMTQSHKVMSTSVGDRVTITCKASQDVHTAVAWIHQKPGQSPKLLIYSASNRYTGVPDRFTGSGSGTDFTFTISSVQAEDLAVYYCQQHYITPLTFGAGTTLELKR
notes: expressed in ExpiCHO cells; also called Chimeric mAb; Chimeric antibody
